How the values were obtained:
[1] = biological target: ChrC-His6, Fe superoxide dismutase ChrC of TnOtchr from Ochrobactrum tritici 5bvl1 (Ochrobactrum tritici 5bvl1); experiment: cross-linking; 10 ug purified enzyme with 0.1 % glutaraldehyde in 20 mM NaCl, 10 mM KCl, 2 mM DTT, 20 mM Hepes pH 7.5; 5, 15 and 30 min at 30 °C; 12 % SDS-PAGE
[2] = biological target: ChrC-His6, Fe superoxide dismutase ChrC of TnOtchr from Ochrobactrum tritici 5bvl1 (Ochrobactrum tritici 5bvl1); experiment: SEC; Superdex 200 10/300 GL, 0.5 mL/min, 50 mM Tris-HCl, 0.15 M NaCl, pH 7.4; mass from a curve of standard proteins
[3] = biological target: ChrF-His6, Mn superoxide dismutase ChrF of TnOtchr from Ochrobactrum tritici 5bvl1 (Ochrobactrum tritici 5bvl1); experiment: cross-linking; 10 ug purified enzyme with 0.1 % glutaraldehyde in 20 mM NaCl, 10 mM KCl, 2 mM DTT, 20 mM Hepes pH 7.5; 5, 15 and 30 min at 30 °C; 12 % SDS-PAGE
[4] = biological target: ChrF-His6, Mn superoxide dismutase ChrF of TnOtchr from Ochrobactrum tritici 5bvl1 (Ochrobactrum tritici 5bvl1); experiment: SEC; Superdex 200 10/300 GL, 0.5 mL/min, 50 mM Tris-HCl, 0.15 M NaCl, pH 7.4; mass from a curve of standard proteins

stoichiometry N [1] | stoichiometry N [2] | stoichiometry N [3] | stoichiometry N [4] | Substance
4 | 4 |  |  | ChrC-His6, Fe superoxide dismutase ChrC of TnOtchr from Ochrobactrum tritici 5bvl1 (enzyme)
 |  | 2 | 2 | ChrF-His6, Mn superoxide dismutase ChrF of TnOtchr from Ochrobactrum tritici 5bvl1 (enzyme)

Source: paper PMC4779226
